Measured values as given in patent publication US20200408769A1.

Experiments:
Assay in all cases: cell-based or functional assay
[1] = target: TM4SF1 (Transmembrane 4 L six family member 1) (human) (UniProt P30408)
[2] = target: EpCAM (Epithelial Cell Adhesion Molecule) (human) (UniProt P16422)
[3] = target: SDC1 (Syndecan 1) (human) (UniProt P18827)
[4] = target: TNFRSF12A (TNF receptor superfamily member 12A) (human) (UniProt Q9NP84)
Chain of UniProt Q9NP84 (Q9NP84 28-129 limits assumed): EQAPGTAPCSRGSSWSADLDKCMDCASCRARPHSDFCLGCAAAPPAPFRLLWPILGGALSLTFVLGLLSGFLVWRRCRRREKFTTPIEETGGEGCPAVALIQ

Chain of UniProt P30408 (P30408 whole entry): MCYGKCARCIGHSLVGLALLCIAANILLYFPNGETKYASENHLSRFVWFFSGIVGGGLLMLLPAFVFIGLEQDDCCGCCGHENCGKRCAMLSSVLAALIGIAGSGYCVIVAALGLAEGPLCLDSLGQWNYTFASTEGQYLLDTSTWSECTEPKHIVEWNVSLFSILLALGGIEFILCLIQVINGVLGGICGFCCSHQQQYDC
Chain of UniProt P16422 (P16422 24-314): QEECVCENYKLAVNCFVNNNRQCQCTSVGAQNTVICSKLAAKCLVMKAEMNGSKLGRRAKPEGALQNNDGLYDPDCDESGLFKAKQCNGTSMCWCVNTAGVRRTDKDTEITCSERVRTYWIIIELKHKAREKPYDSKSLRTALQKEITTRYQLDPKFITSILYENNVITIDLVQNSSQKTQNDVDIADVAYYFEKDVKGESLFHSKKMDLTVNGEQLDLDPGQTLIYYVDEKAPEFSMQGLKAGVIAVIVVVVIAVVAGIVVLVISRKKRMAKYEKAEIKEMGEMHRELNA
Chain of UniProt P18827 (P18827 23-310 L136Q limits assumed): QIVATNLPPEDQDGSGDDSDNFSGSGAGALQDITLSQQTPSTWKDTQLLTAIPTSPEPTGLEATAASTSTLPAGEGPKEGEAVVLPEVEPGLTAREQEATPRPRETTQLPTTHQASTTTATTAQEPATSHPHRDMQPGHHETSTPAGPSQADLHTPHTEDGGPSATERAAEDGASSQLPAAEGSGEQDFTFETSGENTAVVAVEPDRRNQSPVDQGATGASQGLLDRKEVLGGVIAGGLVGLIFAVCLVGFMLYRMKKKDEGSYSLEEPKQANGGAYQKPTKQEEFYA

anti-TM4SF1 antibody (Human TM4SF1 Phycoerythrin MAb, R&D systems)
PANC1 cell collection ratio [%] [1]: 66% | PC3 cell collection ratio [%] [1]: 76%

anti-EpCAM antibody (PE-anti-human EpCAM Antibody, Miltenyi Biotec)
PANC1 cell collection ratio [%] [2]: 49% | PC3 cell collection ratio [%] [2]: 42%

anti-SDC1 antibody (PE-anti-human SDC1 Antibody, Biolegend)
PC3 cell collection ratio [%] [3]: 64%

anti-TNFRSF12A antibody (PE anti-human CD266 (Fn14, TWEAK R) Antibody, Biolegend)
PANC1 cell collection ratio [%] [4]: 74.1% | PC3 cell collection ratio [%] [4]: 48%
